Here are results for one protein from US8217006B2, “Inhibiting GS-FDH to modulate no bioactivity” (Duke University, priority 2001, dated 2012).

Substrate in this data set: N[C@@H](CCC(=O)N[C@@H](CSN=O)C(=O)NCC(=O)O)C(=O)O
The data set can be described thus: cells, lysate or membranes named. Particulars: other: purified protein from RAW 264.7 cells; pH 8.0.

B1: mouse GS-FDH (Mus musculus) (protein)
chain: MANQVIRCKAAVAWEAGKPLSIEEIEVAPPKAHEVRIKILATAVCHTDAYTLSGADPEGCFPVILGHEGAGIVESVGEGVTKLKAGDTVIPLYIPQCGECKFCLNPKTNLCQKIRVTQGKGLMPDGTSRFTCKGKSVFHFMGTSTFSEYTVVADISVAKIDPSAPLDKVCLLGCGISTGYGAAVNTAKVEPGSTCAVFGLGGVGLAVIMGCKVAGASRIIGIDINKDKFAKAKEFGASECISPQDFSKSIQEVLVEMTDGGVDYSFECIGNVKVMRSALEAAHKGWGVSVVVGVAASGEEISTRPFQLVTGRTWKGTAFGGWKSVESVPKLVSEYMSKKIKVDEFVTGNLSFDQINQAFDLMHSGDSIRTVLKM
For the protein B1, the Km worked out at 20 µM and the kcat is 5,600 min^−1.
